1 protein from paper PMC10156769, “The novel anti-cancer fluoropyrimidine NUC-3373 is a potent inhibitor of thymidylate synthase and an effective DNA-damaging agent” (Cancer Chemotherapy and Pharmacology, 2023) can be followed below.

Substrate in the data set “purified protein”: O=c1ccn([C@H]2C[C@H](O)[C@@H](COP(=O)(O)OP(=O)(O)OP(=O)(O)O)O2)c(=O)[nH]1
Kind of data set: purified protein. The conditions noted are these: Mg2+ ([…] MgCl2 in the assay buffer).

Substrate in data set [1]: O=c1[nH]c(=O)n([C@H]2C[C@H](O)[C@@H](COP(=O)(O)OP(=O)(O)OP(=O)(O)O)O2)cc1F
In words: EnzChek pyrophosphate coupled assay, Michaelis-Menten substrate kinetics (KM). Type of data set: biochemical, Homo sapiens. To be noted: Mg2+ ([…] MgCl2 in the assay buffer).

B1: dUTPase (Deoxyuridine triphosphate nucleotidohydrolase) (Homo sapiens) (protein)
chain: ASTVGAAGWKGELPKAGGSPAPGPETPAISPSKRARPAEVGGMQLRFARLSEHATAPTRGSARAAGYDLYSAYDYTIPPMEKAVVKTDIQIALPSGCYGRVAPRSGLAAKHFIDVGAGVIDEDYRGNVGVVLFNFGKEKFEVKKGDRIAQLICERIFYPEIEEVQALDDTERGSGGFGSTGKN
Broadly, the Km is the concentration of substrate that gives half-maximal velocity. As for B1, the Km in “purified protein” is 3.2 ± 1.8 µM; in data set [1] it was 19.1 ± 6.7 µM.
